B1: humanized scFv 16-22-H05-sc02 (STR, structural graft) (scFv)
scFv: MDIQMTQSPSSLSASVGDRVTIKCQASQSIFSGLAWYQQKPGKAPKLLIYGASKLASGVPSRFSGSGSGTEFTLTISGLQPADFATYYCQSYYYSSSSSDGSYAFGGGTKLTVLGGGGGSGGGGSGGGGSGGGGSEVQLVESGGGLVQPGGSLRLSCKASGIDFNNYGIGWVRQAPGKGLEWITYIYPGFAITNFANSVKGRFTISSDNSKNTVYLQMNSLRAEDTAVYYCARDPVYATSSGYFDLWGQGTLVTVSS
notes: also called 16-22-H5-sc02; 16-22-H04-sc02 [sic]
B2: humanized scFv 16-22-H05-sc04 (CDR/STR) (scFv)
scFv: MDIQMTQSPSSLSASVGDRVTITCQASQSIFSGLAWYQQKPGKAPKLLIYGASKLASGVPSRFSGSGSGTEFTLTISGLQPADFATYYCQSYYYSSSSSDGSYAFGGGTKLTVLGGGGGSGGGGSGGGGSGGGGSEVQLVESGGGLVQPGGSLRLSCKASGIDFNNYGIGWVRQAPGKGLEWITYIYPGFAITNFANSVKGRFTISSDNSKNTVYLQMNSLRAEDTAVYYCARDPVYATSSGYFDLWGQGTLVTVSS
notes: also called 16-22-05-sc04

Assays:
recombinant human TNFα [1] = target: T1, recombinant human TNFα (human, UniProt P01375 77-233); assay: inhibition ELISA, blocking of biotinylated TNFα binding to coated TNFRI-Fc
T1 construct: also called tumor necrosis factor alpha; TNFαtrimer
T1 sequence (P01375 77-233 limits assumed): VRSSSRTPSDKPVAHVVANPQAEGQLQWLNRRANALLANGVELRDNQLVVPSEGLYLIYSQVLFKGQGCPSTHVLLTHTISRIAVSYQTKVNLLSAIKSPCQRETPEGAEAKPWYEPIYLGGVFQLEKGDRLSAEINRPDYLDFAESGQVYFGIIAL
Description: For the first inhibition ELISA, the extracellular domain of TNFRI fused to the Fc region of human IgG (R&D Systems, Cat. No. 372-RI) was coated on a 96-well Maxisorp ELISA at a concentration of 0.5 pg/ml. […] All subsequent steps were identical for both assays.

recombinant human TNFα [2] = target: T1, recombinant human TNFα; assay: cell-based or functional assay
[3] = target: B1; assay: competition ELISA: unlabeled TNFβ against biotinylated TNFα on coated scFv
Description: (§1) For this purpose, the scFvs were coated on a 96-well Maxisorp ELISA plate at a concentration of 1 pg/ml. […] To control precision of the response, the dose-response curves were analyzed in duplicate.

[4] = target: B2; assay: as above
Description: as §1

Binder	rel. IC50 (IC50 Infliximab/IC50 scFv, ng/mL) (recombinant human TNFα [1])	rel. IC90 (IC90 Infliximab/IC90 scFv, ng/mL) (recombinant human TNFα [1])	L929 assay, rel. IC50 (recombinant human TNFα [2])	L929 assay, rel. IC90 (recombinant human TNFα [2])	IC50 [3]	IC50 [4]
B1	3.5 ratio	2.4 ratio	13.1 ratio IC50 Infliximab (ng/ml)/IC50 scFv (ng/mL)	12.6 ratio IC90 Infliximab (ng/ml)/IC90 scFv (ng/mL)		
B2	2.8 ratio	2.1 ratio	14.6 ratio IC50 Infliximab (ng/ml)/IC50 scFv (ng/mL)	13.1 ratio IC90 Infliximab (ng/ml)/IC90 scFv (ng/mL)		
recombinant human TNFβ (ligand, UniProt P01374 35-205, looked up) LPGVGLTPSAAQTARQHPKMHLAHSTLKPAAHLIGDPSKQNSLLWRANTDRAFLQDGFSLSNNSLLVPTSGIYFVYSQVVFSGKAYSPKATSSPLYLAHEVQLFSSQYPFHVPLLSSQKMVYPGLQEPWLHSMYHGAAFQLTQGDQLSTHTDGIPHLVLSPSTVFFGAFAL					> 1.25 ng/mL	> 1.25 ng/mL

Reference: patent US20230279091A1 (published 2023)
